Publication PMC4942676
pKd: −log10 of the molar value. Each block holds one substance with its values, some of them ahead of it.

What was measured:
[1] = target: UBQLN UBL domain UBL (Homo sapiens) (UniProt Q9UMX0); settings: cited from earlier work
[2] = target: UBQLN1 loaded with Ub-Omp25 (UniProt Q9UMX0); assay: pull-down; client (Omp25 or Ub-Omp25) translated in lysate lacking ubiquitin, UbcH5 and the major TMD-binding factors, supplemented with 40 nM recombinant FLAG-tagged UBQLN1 variant; affinity purified via the FLAG tag; autoradiography for the client, immunoblot for proteasome subunit α7
[3] = target: FLAG-tagged construct containing the Omp25 TMD, translated in the PURE system; assay: co-sedimentation; Omp25 TMD construct translated in the PURE system with 35S-methionine and 15 uM recombinant chaperone; sucrose gradient, autoradiography

Substance: UBQLN UBA domain UBA (from UniProt Q9UMX0)
- pKd [1]: 4.10

- fold proteasome association relative to UBQLN1 loaded with Omp25 [2]: 2 to 3 fold
Substance: proteasome, endogenous in rabbit reticulocyte lysate (from UniProt G1SZ14 1-326) (complex)

- stoichiometry N [3]: 1
Substance: recombinant UBQLN1 (FLAG-tagged) (from UniProt Q9UMX0 1-589) (natural protein)
